Measured values taken from paper doi:10.1101/2024.01.08.574761 (bioRxiv, 2024).

Biological target: Claspin C-terminal polypeptide #18 (897-1339aa), 3x Flag, dephosphorylated with λPPase (human, UniProt Q9HAW4 897-1339, dephosphorylated with λPPase)
Assay: native gel or EMSA

Claspin C-terminal polypeptide #18 (897-1339aa), 3x Flag, dephosphorylated with λPPase, sequence (Q9HAW4 897-1339): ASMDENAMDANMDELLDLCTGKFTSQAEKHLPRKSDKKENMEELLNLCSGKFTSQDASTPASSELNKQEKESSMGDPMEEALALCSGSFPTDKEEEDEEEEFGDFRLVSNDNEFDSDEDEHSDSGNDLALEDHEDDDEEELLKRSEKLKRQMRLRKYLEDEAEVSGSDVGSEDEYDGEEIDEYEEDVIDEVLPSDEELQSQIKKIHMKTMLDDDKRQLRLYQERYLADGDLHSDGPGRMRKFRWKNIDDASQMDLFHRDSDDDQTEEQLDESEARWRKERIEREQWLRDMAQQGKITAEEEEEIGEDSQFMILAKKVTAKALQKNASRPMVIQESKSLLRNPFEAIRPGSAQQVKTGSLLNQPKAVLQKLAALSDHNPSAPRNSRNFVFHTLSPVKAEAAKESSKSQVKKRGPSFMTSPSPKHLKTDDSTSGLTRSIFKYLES

binding result: binds
B1: Claspin N-terminal polypeptide #2 (1-350aa), dephosphorylated with λPPase (domain or fragment)
chain: MTGEVGSEVHLEINDPNVISQEEADSPSDSGQGSYETIGPLSEGDSDEEIFVSKKLKNRKVLQDSDSETEDTNASPEKTTYDSAEEENKENLYAGKNTKIKRIYKTVADSDESYMEKSLYQENLEAQVKPCLELSLQSGNSTDFTTDRKSSKKHIHDKEGTAGKAKVKSKRRLEKEERKMEKIRQLKKKETKNQEDDVEQPFNDSGCLLVDKDLFETGLEDENNSPLEDEESLESIRAAVKNKVKKHKKKEPSLESGVHSFEEGSELSKGTTRKERKAARLSKEALKQLHSETQRLIRESALNLPYHMPENKTIHDFFKRKPRPTCHGNAMALLKSSKYQSSHHKEIIDT
modifications: dephosphorylated with λPPase
